In assay [1] the target is human POT1 C-terminus (POT1C), residues 330-634, wild type (human) (UniProt Q9NUX5). As to the kind of experiment: ITC; MicroCal iTC200; 100 uM TPP1(PBD) injected into the cell with 10 uM POT1C; 25 C; 25 mM Hepes pH 7.5, 0.1 M KCl, 5% glycerol, 1 mM TCEP; 16 injections of 2.47 ul; proteins purified separately. In general terms: In ITC the heat of successive injections is recorded.

Assay [2] deals with human POT1C (330-634) A532P (human) (UniProt Q9NUX5). The assay is described as above.
Assay [3] has as its target human POT1C (330-634) C591W (human) (UniProt Q9NUX5). The assay is described as above.
The target of assay [4] is human POT1C (330-634) L343F (human) (UniProt Q9NUX5). The description is as above.
human POT1C (330-634) L343F (human), sequence (Q9NUX5 330-634 L343F): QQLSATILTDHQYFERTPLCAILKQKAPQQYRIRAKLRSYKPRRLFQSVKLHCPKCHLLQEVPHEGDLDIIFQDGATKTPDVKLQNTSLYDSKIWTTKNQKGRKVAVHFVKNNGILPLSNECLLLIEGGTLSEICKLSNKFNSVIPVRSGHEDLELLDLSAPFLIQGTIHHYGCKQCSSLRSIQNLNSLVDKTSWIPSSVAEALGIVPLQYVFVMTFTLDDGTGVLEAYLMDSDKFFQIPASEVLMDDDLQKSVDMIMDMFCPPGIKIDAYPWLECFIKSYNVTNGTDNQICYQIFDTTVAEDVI
Assay [5] addresses human POT1C (330-634) P446Q (human) (UniProt Q9NUX5). The description is as above.
The target in assay [6] is human POT1C (330-634) P475L (human) (UniProt Q9NUX5). Described as above.
Assay [7] deals with human POT1C (330-634) Q623H (human) (UniProt Q9NUX5). Described as above.
The target of assay [8] is human POT1C (330-634) R477T (human) (UniProt Q9NUX5). The assay is described as above.
The target in assay [9] is T1, human POT1C (residues 330-634) Q623H (human, UniProt Q9NUX5 330-634, Q623H).
T1 construct: POT1, human, C-terminal portion (OB-fold and HJR domain), residues 330-634, with the germline melanoma-associated mutation Q623H; PDB 5UN7 holds the wild-type parent with the same limits; The methods describe tag cleavage by TEV for the co-purified complex; For ITC the proteins were purified separately; also called POT1C Q623H; source: E. coli ScarabXpress T7 lac, purified (Ni-NTA, Poros HS/HQ, …)
T1 sequence (looked up): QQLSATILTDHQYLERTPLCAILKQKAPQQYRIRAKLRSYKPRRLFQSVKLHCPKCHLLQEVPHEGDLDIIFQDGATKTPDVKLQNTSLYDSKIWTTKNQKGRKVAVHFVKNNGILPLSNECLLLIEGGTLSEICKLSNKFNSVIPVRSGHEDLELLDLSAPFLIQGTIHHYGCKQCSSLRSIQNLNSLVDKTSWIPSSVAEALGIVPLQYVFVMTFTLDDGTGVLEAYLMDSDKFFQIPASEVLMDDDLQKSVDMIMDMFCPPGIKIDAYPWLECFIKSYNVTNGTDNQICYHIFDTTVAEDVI
Put plainly: ITC; 100 uM TPP1(PBD) injected into the cell with 10 uM POT1C; 25 °C; 25 mM Hepes pH 7.5, 0.1 M KCl, 5% glycerol, 1 mM TCEP; 16 injections of 2.47 ul; three independent experiments. To be noted: both partners purified.

“human TPP1 POT1-binding domain, TPP1(PBD), residues 255-337 (from UniProt Q96AP0 255-337) (domain or fragment)”: the dissociation constant Kd (in general, the concentration at which binding is half-saturated) turned out to be 120 nM in assay [1]; 117 nM in [2]; 870 nM in assay [3]; 114 nM in [4]; 289 nM in [5]; 164 nM in [6]. Moreover, the values for the Kd in assay [7] and in [8] were 471 nM and 123 nM, respectively.

B1: human TPP1(PBD), residues 255-337 (domain or fragment)
chain: SQLLDEMREDQEHQGALVCLAESCLTLEGPCTAPPVTHWAASRCKATGEAVYTVPSSMLCISENDQLILSSLGPCQRTQGPEL
The molecule B1 yielded a Kd in assay [9] of 472 nM.

The record behind these values is article PMC5394233, “Structural and functional analysis of the human POT1-TPP1 telomeric complex” (Nature Communications, 2017).
